Assay: soluble on expression in E. coli; label from the status in PepcDB or PDB records

Sequence | soluble on expression in E. coli
SITSTVLPPVYNQQNEDTCIIRISVEDNNGNMYKSIMLTSQDKTPAVIQRAMSKHNLESDPAEEYELVQVISEDKELVIPDSANVFYAMNSQVNFDFILRKKN | soluble
MSVPSSLSQSAINANSHGGPALSLPLPLHAAHNQLLNAKLQATAVGPKDLRSAMGEGGGPEPGPANAKWLKEGQNQLRRAATAHRDQNRNVTLTLAEEASQEPEMAPLGPKGLIHLYSELELSAHNAANRGLRGPGLIISTQEQGPDEGEEKAAGEAEEEEEDDDDEEEEEDLSSPPGLPEPLESVEAPPRPQALTDGPREHSKSASLLFGMRNSAASDEDSSWATLSQGSPSYGSPEDTDSFWNPNAFETDSDLPAGWMRVQDTSGTYYWHIPTGTTQWEPPGRASPSQGSSPQEESQLTWTGFAHGEGFEDGEFWKDEPSDEAPMELGLKEPEEGTLTFPAQSLSPEPLPQEEEKLPPRNTNPGIKCFAVRSLGWVEMTEEELAPGRSSVAVNNCIRQLSYHKNNLHDPMSGGWGEGKDLLLQLEDETLKLVEPQSQALLHAQPIISIRVWGVGRDSGRDFAYVARDKLTQMLKCHVFRCEAPAKNIATSLHEICSKIMAERRNARCLVNGLSLDHSKLVDVPFQVEFPAPKNELVQKFQVYYLGNVPVAKPVGVDVINGALESVLSSSSREQWTPSHVSVAPATLTILHQQTEAVLGECRVRFLSFLAVGRDVHTFAFIMAAGPASFCCHMFWCEPNAASLSEAVQAACMLRYQKCLDARSQASTSCLPAPPAESVARRVGWTVRRGVQSLWGSLKPKRLGAHTP | soluble
MNQELKLRPLEREDLKFVHELNNNAHIMSYWFEEPYEAFVELQDLYDKHIHDQSERRFIVEKDNEMVGLVELVEIDYIHRRTEFQIIIDPNYQGYGYAVEATRLAMDYAFAVLNMHKIYLVVDKENEKAVHVYKKVGFMVEGELIDEFFVDGNYHNAIRMCMFQKQYFENK | not soluble
MLSPEQDLNRHADPFPFNEEPSSQDLDSLRDLVTEAETLQDMVTGGLSIDAILNVLDATGEDETIWPVEKTPPDILHLLSPEYAPETAHNTVLPDLTRKEHRIIGIDSHYRINPAQHGEIYHDKQ | not soluble
VDSKKRPGKDLDRIDRNILNELQKDGRISNVELSKRVGLSPTPCLERVRRLERQGFIQGYTALLNPHYLDASLLVFVEITLNRGAPDVFEQFNTAVQKLEEIQECHLVSGDFDYLLKTRVPDMSAYRKLLGETLLRLPGVNDTRTYVVMEEVKQSNRLVIKTR | soluble
MGSSHHHHHHGGTGENLYFQGGSGSNRKKVAYFHDPDIGSYYYGAGHPMKPQRIRMTHSLIVSYNLYKYMEVYRPHKSDVNELTLFHDYEYIDFLSSISLENYREFTYQLKRFNVGEATDCPVFDGLFQFQQSCAGASIDGASKLNHHCADICVNWSGGLHHAKMSEASGFCYINDIVLGILELLKYHARVMYIDIDVHHGDGVEEAFYVTHRVMTVSFHKFGDYFPGTGDITDVGVNHGKYYSVNVPLNDGMTDDAFVDLFKVVIDKCVQTYRPGAIIIQCGADSLTGDRLGRFNLTIKGHARCVEHVRSYNIPLLVLGGGGYTIRNVSRCWAYETGVVLNKHHEMPDQISLNDYYDYYAPDFQLHLQPSNIPNYNSPEHLSRIKMKIAENLRHIEHAPGVQFSYVPPDFFNSDIDDESDKNQYELKDDSGGGRAPGTRAKEHSTTHHLRRKNYDDDFFDLSDRDQSIVPY | not soluble
MAGGFGVGKTTFVGAVSEIAPLSTEELLTTVGAATDNLDGIENKVETTVAMDFGRITLDPEHVLYLFGTPGQQRFWFMWDELSEGALGAVILADTRRLEDCFAAVDFFEQRGLAFIVAINDFDGGYRYDPAEVRAAIDLDPHIPVVRCDARISSSGVQTLLTLVRHLLAHAPATAPSHGAHTLEHHHHHH | not soluble
MGSDKIHHHHHHMKVTNYQGATIDPYSKGLGMVPGTSIQLTDAARLEWNLLNEDVSLPAAVLYADRVEHNLKWMQAFVAEYGVKLAPHGKTTMAPQLFRRQLETGAWGITLATAHQVRAAYHGGVSRVLMANQLVGRRNMMMVAELLSDPEFEFFCLVDSVEGVEQLGEFFKSVNKQLQVLLELGVPGGRTGVRDAAQRNAVLEAITRYPDTLKLAGVELYEGVLKEEHEVREFLQSAVAVTRELVEQERFARAPAVLSGAGSAWYDVVAEEFVKASETGKVEVVLRPGCYLTHDVGIYRKAQTDIFARNPVAKKMGEGLLPALQLWAYVQSIPEPDRAIIGLGKRDSAFDAGMPEPARHYRPGNEAPRDIAASEGWEIFGLMDQHAYLRIPAGADLKVGDMIAFDISHPCLTFDKWRQVLVVDPAYRVTEVIETFF | not soluble
MNMYSMPGYFQNMPTIGKELVNPNPENEQEIKAVESDIHESIKKALDAGITSEEKLNERGQLSAMQRINALIDPGTWCPLNSLFNPENNKFGTTNIVNGLGRVDGKWVYIVASDNKKMAGAWVPGQAENLIRCSDAAKMMHLPLIYLLNCSGVEFPNQDKVYPNRRGGGTPFFRNSELNQLGIPVIVGIYGTNPAGGGYHSISPTILIAHQDANMAVGGAGILSGMNPKGYIDDEAAEQIIAAQIENSKLKVPAPGSVPIHYDETGFFREVYQNDLGVIDGIKKYISYLPAYNLEFFRVDTPKAPQLPAEDLYSIIPMNQKRPYDIYEVIARLFDNSEFSEYKKGYGPEMVTGLAKVNGLLVGVIANVQGLLMNYPEYKQNSVGIGGKLYRQGLIKMNEFVTLCARDRIPLIWLQDTTGIDVGDEAEKAELLGLGQSLIYSIENSKLPSLEITIRKASAAAHYVLGGPQGNNTNVFSIGTGACEYYVMPGETAANAMYSRKLVKAKKAGEDLQPIIGKMNDMIQMYTDKSRPKYCTEKGMVDEIVDMTEVRPYIQAFTEAAYQNPQSICPMHQMLTPRSTREFETFGK | soluble
MPRRAPAFPLSDIKAQMLFANNIKAQQASKRSFKEGAIETYEGLLSVDPRFLSFKNELSRYLTDHFPANVDEYGRVYGNGVRTNFFGMRHMNGFPMIPATWPLASNLKKRADADLADGPVSERDNLLFRAAVRLMFSDLEPVPLKIRKGSSTCIPYFSNDMGTKIEIAERALEKAEEAGNLMLQGKFDDAYQLHQMGGAYYVVYRAQSTDAITLDPKTGKFVSKDRMVADFEYAVTGGEQGSLFAASKDASRLKEQYGIDVPDGFFCERRRTAMGGPFALNAPIMAVAQPVRNKIYSKYAYTFHHTTRLNKEEKVKEWSLCVATDVSDHDTFWPGWLRDLICDELLNMGYAPWWVKLFETSLKLPVYVGAPAPEQGHTLLGDPSNPDLEVGLSSGQGATDLMGTLLMSITYLVMQLDHTAPHLNSRIKDMPSACRFLDSYWQGHEEIRQISKSDDAMLGWTKGRALVGGHRLFEMLKEGKVNPSPYMKISYQHGGAFLGDILLYDSRREPGSAIFVGNINSMLNNQFSPEYGVQSGVRDRSKRKRPFPGLAWASMKDTYGACPIYSDVLEAIERCWWNAFGESYRAYREDMLKRDTLELSRYVASMARQAGLAELTPIDLEVLADPNKLQYKWTEADVSANIHEVLMHGVSVEKTERFLRSVMPR | soluble
MAHHHHHHMDRRHLELEDAQERASAEEVATQASAEHKHYMNDSDEDSDEENGIDDEQSASLVAMLRTQEEIDSAIAGFTKGTRMLLASSGNGYVSYLDGSVHFTIAKVESHNASNREKVMQALAGTNVAMPTAEEYSLEEVRQAMHDRDTARKKLDALRALQDPTYTARIRSAEKDTYGTPVQQLMEEDGDMSALVANCEDAKRFAESVRKAYNSRAAASAHALACALCTPPFTAEQESTSEAQAPAGKMANAEDGVSQPTGANSPSSSTSAQ | soluble
MQSWSRVYCSLAKRGHFNRISHGLQGLSAVPLRTYADQPIDADVTVIGSGPGGYVAAIKAAQLGFKTVCIEKNETLGGTCLNVGCIPSKALLNNSHYYHMAHGTDFASRGIEMSEVRLNLDKMMEQKSTAVKALTGGIAHLFKQNKVVHVNGYGKITGKNQVTATKADGGTQVIDTKNILIATGSEVTPFPGITIDEDTIVSSTGALSLKKVPEKMVVIGAGVIGVELGSVWQRLGADVTAVEFLGHVGGVGIDMEISKNFQRILQKQGFKFKLNTKVTGATKKSDGKIDVSIEAASGGKAEVITCDVLLVCIGRRPFTKNLGLEELGIELDPRGRIPVNTRFQTKIPNIYAIGDVVAGPMLAHKAEDEGIICVEGMAGGAVHIDYNCVPSVIYTHPEVAWVGKSEEQLKEEGIEYKVGKFPFAANSRAKTNADTDGMVKILGQKSTDRVLGAHILGPGAGEMVNEAALALEYGASCEDIARVCHAHPTLSEAFREANLAASFGKSINF | not soluble
MSLNAKTVTELRSALLYMRAEDYHLWVNMGLALRELGETGRGLWMEWSATSEKFDSKDAAKKWNSFKPTGTSYQAVFAEAARHGWVNPGRSDAQLTGRRVQTQLKTSHKIKLEFAMSSDTETAKVSYLVDPFLPCKCVVGFFGRGGTAKSSFLATMAAMISQRASTLWVSAEELTDWIKARHIKTGGAPGTLQVFRGIETDEHSGQHIQVFGVYEHLDAALTMSNVAARDAGMPAVRLVVLDTAVALTIWPSGQGPNDDASVKRLLAYMQALAEKHDVTIAFIGHNNKRSSQNTEHFEDMVAGAGAWVTSPRVAFVHARDRREENSYVMRLAKPQLTPRFLVTYKTEPVHTLAQREDAPASVLCRVALGDEYIWGEDESASVFDAATGKDTEEDSGHVLEQRATTVQQVIDALVQMVHMTNAGQDVTRDMVHSALHRIVNGRRWKDVDDRLYMAQFQYRIAIVRGPNNQVLYRKMGPAEGHHHHHH | soluble
MSLNQLFCHPETITIKKAVYYDIAPIPLPTPFKDGTGGVRHASFFKGWMKIYDEDGFCGQGPAGPLMTDFFLPRMLNAPGKSNGEWMEYFWWEIRNFGYQSPYIPEMTNLDWLLLDLLANRAGLPLHRFLGADRDWACVYKGGGSVLLSDEALISDLQRFKDEGYKTTKFKIGGSGPDFSQDIRRLEKARQALGDGFGIAVDANQAWDAKTAFAFAKEAAPLGVAWLEEPVHAYDMDALRELRDLLDEAGIAMEIAMGESVRSYHTHVAYAEHGVDHLQPARLYCIAENMRVREYARRHGCRISTGGFTFQNAALGALYSEDELLEYHQPLNEVLVPYFSLVSEMKDGRFYLPDVPGLPVHLDFERLERDGLLRGIQFYYHKEGHHHHHH | soluble
MRTNAFEAVARYVYPSLRRRLVEILRERGLTQIQIAELLHITQSAVSRYLRMNRGALIEVEKFQDIDEKLKGLADTIVREKPDEYYIHGELVKIAVEMLGKGYVCSFHSKVDPEIDPKLCRICIETFGLEHHHHHH | soluble
MGSDKIHHHHHHMPKITKIEVQKKNKERFNLFLDEQFEMGIDIDTLVKFNLKKGQQLEAADMAEIQKYDHYRIGLNKAIQYLSYKKRTEKEVIQYLQKEEISEQAISEVIEYCYREKLIDHQDYAESLKNTMIRTTDKGPKIYQQKLYQLGIEPNIIEIFTELYREQQELDDIIQIAEKISKTKKGPQNKVKEKVMQSLIQKGFEMETIHAVLNEMDFTQDEAVLDDLLQRDLEKIYNKNRKKYTQQKLISKTIEGLMRKGYKYDKIKAKLEESGIADGTEEIE | not soluble
MSLNHVRPWRNIHRRKSRQIMVGNVPVGGDAPISVQTMTNTITADAPATIAQVLRAAEAGADIVRVSVPDEASTRALKEIVAASPVPIVADIHFHYKRAIEAAEAGAACLRINPGNIGDASRVREVIKAARDHGCSMRIGVNAGSLEKHLLDKYGEPCPEAMVESGLDHIKILQDNDFHEFKISVKASDVFLAAAAYQALADATDAPIHLGITEAGGLTAGTVKSAVGLGNLLWSGIGDTLRVSLSADPVEEVKVGYEILKSLGLRHRGVTIISCPSCARQGFDVIKTVAELEDRLAHVTTSMSLSIIGCVVNGPGEALMTDIGFTGGGNGSGMVYLAGKQAHKLGSERMIDEIVSMVESRAAEIEAEKLAAAEAAE | not soluble
MSRAEFIRFLQVLEEDLPFRALFQEADPEEILKLADQHGFIFSDEIKGRFLNRWAGVYFCPFANDVGRLCPKMVPEGFSTLLHYSQTTCTKEDKVERFDFRAGGYYEGVKAVTG | not soluble

Reference: the DeepSol protein solubility set
